Like-named read-outs stand apart in the source and are kept apart here.
How the values were obtained:
[1] = target: T1, Spo11 wild type (core complex subunit);Ski8;Rec102;Rec104 (Saccharomyces cerevisiae;Saccharomyces …, UniProt P23179;Q02793;Q02721;P33323 1-398;1-397;1-264;1-182, |||); test: FeBABE footprinting
[2] = target: T1, Spo11 wild type (core complex …); test: FeBABE footprinting; remark: listed apart in the source

T1 sequence (P23179 whole entry, chain 1 of 4): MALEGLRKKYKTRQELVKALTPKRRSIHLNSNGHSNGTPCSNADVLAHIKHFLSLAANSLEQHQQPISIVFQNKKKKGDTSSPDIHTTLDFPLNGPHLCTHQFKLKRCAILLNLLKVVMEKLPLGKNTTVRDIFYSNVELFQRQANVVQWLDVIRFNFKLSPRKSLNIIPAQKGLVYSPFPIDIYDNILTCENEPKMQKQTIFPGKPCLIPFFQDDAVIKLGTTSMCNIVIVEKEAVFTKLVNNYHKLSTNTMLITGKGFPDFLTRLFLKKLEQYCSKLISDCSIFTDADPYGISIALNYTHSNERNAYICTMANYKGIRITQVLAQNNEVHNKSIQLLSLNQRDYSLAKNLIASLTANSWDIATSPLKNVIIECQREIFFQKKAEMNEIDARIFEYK
T1 sequence (Q02793 whole entry, chain 2 of 4): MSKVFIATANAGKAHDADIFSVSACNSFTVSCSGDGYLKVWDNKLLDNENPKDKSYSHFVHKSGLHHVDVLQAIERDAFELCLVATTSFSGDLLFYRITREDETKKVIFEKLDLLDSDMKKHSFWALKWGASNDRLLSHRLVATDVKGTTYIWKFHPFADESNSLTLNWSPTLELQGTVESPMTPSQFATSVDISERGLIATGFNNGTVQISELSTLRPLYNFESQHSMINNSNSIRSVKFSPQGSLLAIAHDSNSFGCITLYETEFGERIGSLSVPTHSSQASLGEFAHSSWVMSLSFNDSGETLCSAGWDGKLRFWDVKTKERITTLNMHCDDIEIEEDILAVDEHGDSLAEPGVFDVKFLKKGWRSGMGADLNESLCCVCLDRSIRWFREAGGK
T1 sequence (Q02721 whole entry, chain 3 of 4): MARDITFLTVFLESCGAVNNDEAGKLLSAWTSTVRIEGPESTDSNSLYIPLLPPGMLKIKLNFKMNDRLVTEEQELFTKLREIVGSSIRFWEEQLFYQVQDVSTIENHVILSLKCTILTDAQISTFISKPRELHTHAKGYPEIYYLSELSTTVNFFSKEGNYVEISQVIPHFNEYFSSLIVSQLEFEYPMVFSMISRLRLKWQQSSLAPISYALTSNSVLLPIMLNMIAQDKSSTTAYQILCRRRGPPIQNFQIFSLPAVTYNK
T1 sequence (P33323 whole entry, chain 4 of 4): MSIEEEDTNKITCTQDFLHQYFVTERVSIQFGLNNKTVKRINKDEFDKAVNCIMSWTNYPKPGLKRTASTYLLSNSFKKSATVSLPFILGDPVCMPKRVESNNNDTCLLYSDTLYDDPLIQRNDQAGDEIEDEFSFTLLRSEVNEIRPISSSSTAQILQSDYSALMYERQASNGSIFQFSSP

B1: 5'-TA-proximal FeBABE probe (cb958/cb961) (dsDNA)
DNA 1: TAGCAATGTAATCGTCTATGACGTT
DNA 2: AACGTCATAGACGATTACATTGC
modifications: 5 phosphorothioates with FeBABE on strand 2 (after nt 13,15,17,19,21)
binding result [1]: binds

B2: 5'-TA-distal FeBABE probe (cb958/cb960) (dsDNA)
DNA 1: TAGCAATGTAATCGTCTATGACGTT
DNA 2: AACGTCATAGACGATTACATTGC
modifications: 5 phosphorothioates with FeBABE on strand 2 (after nt 2,4,6,8,10)
binding result [2]: binds

From PMC7855791
